Source: PMC10130748 (Life Science Alliance, 2023)
Positions of bridges follow the written chain, without caps; N, C: chain ends. No end group written: not given here.

Target: T1, CD62P (P-selectin) lectin domain (residues 1–117), wild type
T1 construct: CD62P (P-selectin) C-type lectin domain, residues 1-117; cDNA chemically synthesized, BamHI/EcoRI site of pET28a; also called CD62P lectin domain; C-type lectin domain of CD62P; not shown: His tag from pET28a ([residues removed]), N-terminal, kept
T1 chain: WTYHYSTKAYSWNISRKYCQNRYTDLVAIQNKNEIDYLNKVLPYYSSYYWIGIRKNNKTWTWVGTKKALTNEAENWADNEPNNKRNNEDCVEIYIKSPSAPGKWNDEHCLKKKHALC
Assay: ELISA; wells coated with the CD62P lectin domain (20 μg/ml), blocked with BSA; site 2 peptides fused to GST (100 μg/ml); bound GST detected with HRP-conjugated anti-GST
Settings: both partners purified

Binder | binding result
CKLGGIVLPNDGQSHLENNMYTMSHYYC (disulfide 1-28 (inferred); also: fused to GST, also called cyclic site 2 peptide from β1; site 2 peptide from β1) [cyclic site 2 peptide of integrin β1 (residues 268–295, C281S) fused to GST] | binds
CRLAGIVQPNDGQSHVGSDNHYSASTTMC (disulfide 1-29 (inferred); also: fused to GST, also called cyclic site 2 peptide from β3; site 2 peptide of β3) [cyclic site 2 peptide of integrin β3 (residues 260–288, C273S) fused to GST] | binds
